According to US6403765B1, “Truncated Apaf-1 and methods of use thereof” (Thomas Jefferson University, priority 1998, dated 2002):
Numbering of substitutions follows the chain as printed. Names may count otherwise. Values belong to the molecule of their own block, whether it stands above or below them.

How the values were obtained:
procaspase-9 [1] = experiment: Autoprocessing of in vitro translated procaspase-9 and Fc-fusion procaspase-9 variants; type: biochemical; details: 35S-labeled, FIG. 9
Description: (§1) ^35S-labeled caspases were obtained by in vitro translation in the presence of ^35S-methionine using a coupled transcription/translation system in rabbit reticulocyte lysate using TNT Kit (Promega) according to the manufacturer's recommendations.
Artificially-induced oligomerization of procaspase-1 or procaspase-8 by overexpression or by heterologous-inducible oligomerization systems causes their autocatalytic processing/activation (Gu et al., EMBO 14:1923-1931, 1995; Muzio et al., J. Biol. Chem. 273:2926-2930, 1998; Yang et al., Mol. Cell 1:319-325, 1998). To test if procaspase-9 can also be activated by heterologous oligomerization, WT and the C287A mutant procaspase-9 was fused to the mouse IgG-Fc portion which can form spontaneous dimers by intermolecular disulfide linkages. FIG. 9 depicts processing of non-fusion WT procaspase-9 (pcasp-9, lane 1) or C-terminal Fc-fusion WT (pcasp-9-Fc, lane 2) or C287A (active site) mutant (pcasp-9-C287A-Fc, lane 3) procaspase-9 which were in vitro translated in the presence of ^35S-methionine and then analyzed by SDS-PAGE and autoradiography.

MCF-7 cells [2] = experiment: Induction of apoptosis in MCF-7 cells transfected with procaspase-9 variants; type: cell-based; details: overexpression, 30 hours after transfection, FIG. 10
Description: (§2) To express the caspases or truncated Apaf-1 in mammalian cells and assay their apoptotic activity, they were amplified with the T7-tag primer and reverse primers using the pET28a constructs as templates, and subcloned into the mammalian double expression vector pRSC-LacZ (MacFarlane et al., J. Biol. Chem., 272:25417-25420, 1997; Tsang et al., Bio/Technology, 22:68, 1997) or as previously described (Li et al., Cell 91:479-489, 1997; Srinivasula et al., J. Biol. Chem., 272:18452-18545, 1997). This vector allows the expression of lacZ under the Rous Sarcoma virus promoter, and the test cDNA under the CMV promoter. To assay for apoptosis, MCF-7 or 293 cells were transfected, using the method commercially available as the Lipofect Amine method (Life Technologies, Inc.), with the pRSC-LacZ constructs in the presence or absence of different apoptosis-inhibitors. 30 h after transfection cells were stained with β-galactosidase and examined for morphological signs of apoptosis. The percentage of round blue apoptotic cells (mean±SD) were determined by phase contrast microscopy and then represented as a function of total blue cells under each condition (n≧3).
In FIG. 10, mammalian expression constructs encoding Fc or the procaspase-9 variants described in FIG. 9 were transfected into MCF-7 cells together with a reporter β-gal expression construct at a ratio of 3:1. […]

procaspase-9 [3] = target: T1, procaspase-9 (Homo sapiens, UniProt P55211); experiment: In vitro caspase 9 activation assay: recombinant Apaf-1 variants incubated with in vitro translated procaspase-9; type: biochemical; details: in vitro reconstituted system, data not shown
T1 construct: schematic representation of full length procaspase-9; made in house; host or cells: coupled in vitro transcription/translation in rabbit reticulocyte lysate (TNT Kit, Promega)
T1 sequence (P55211 1-416): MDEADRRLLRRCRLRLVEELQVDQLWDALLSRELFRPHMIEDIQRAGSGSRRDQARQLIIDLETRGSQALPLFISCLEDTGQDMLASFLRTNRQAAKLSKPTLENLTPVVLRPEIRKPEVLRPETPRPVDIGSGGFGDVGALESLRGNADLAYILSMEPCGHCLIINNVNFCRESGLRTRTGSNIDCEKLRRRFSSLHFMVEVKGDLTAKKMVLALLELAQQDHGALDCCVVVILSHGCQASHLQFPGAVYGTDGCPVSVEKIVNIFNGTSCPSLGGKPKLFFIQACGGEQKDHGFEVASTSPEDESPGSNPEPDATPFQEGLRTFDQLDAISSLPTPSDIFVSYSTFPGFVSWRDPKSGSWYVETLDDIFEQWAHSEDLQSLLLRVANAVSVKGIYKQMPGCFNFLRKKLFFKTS
Method: SDS sample buffer was then added to each sample, boiled and subjected to SDS-PAGE analysis followed by autoradiography. In FIG. 2A procaspase-9 was in vitro translated in the presence of ^35S-methionine. Following translation procaspase-9 was desalted by gel filtration through a biospin column (BioRad) to remove unincorporated methionine and free nucleotides. Desalted procaspase-9 was then incubated with 200 ng Ni^2+-affinity purified bacterially expressed recombinant Apaf-530 (WT or K149R mutant) in the presence or absence of cytochrome c or dATP or both for 2 h at 30° C. A mock sample containing Ni^2+-affinity purified material from bacteria transformed with an empty vector was used as a negative control. Following incubation the products were analyzed by SDS-PAGE and autoradiography. In FIG. 2B^35S-labeled procaspase-9 (as described above) was incubated with bacterial lysates containing truncated Apaf-1 variants as indicated and then analyzed as above (2B upper panel). The bacterial lysates were analyzed by SDS-PAGE and immunoblotted with an Apaf-1 antibody which recognizes the N-terminus of Apaf-1 (lanes 2-6) and an anti T7-tag antibody (lanes 7-8) to confirm expression and equivalent concentration of the different Apaf-1 variants (2B lowerpanel). The molecular mass markers are indicated to the right of the lower panel.
as §1
To determine the role of the WD-40 repeat in the mechanism of Apaf-1-induced processing of procaspase-9, truncated Apaf-1 (Apaf-530) lacking its WD-40 repeats (FIG. 1) was expressed and purified. To reconstitute a recombinant caspase-9 activation system, the truncated Apaf-530 was incubated with in vitro translated recombinant procaspase-9 in the presence or absence of cytochrome c and dATP. […] It was previously shown that mutation of CED-4 K165R which is required for nucleotide binding destroys its activity (Chinnaiyan et al., Nature 388:728-729, 1997; Jarnes et al., Curr. Biol. 7:246-252, 1997; Seshagiri and Miller, Curr. Biol. 7:455-460, 1997). […] Therefore, either binding of Apaf-1 to cytochrome c and dATP or deletion of the repeats could induce a conformational change enabling Apaf-1 to bind and process procaspase-9.
In FIG. 3, ^35S-labeled WT or mutant D330A, D315A or C287A mutants of procaspase-9 or prodomainless procaspase-9 (Δpro, residues 134-416) were incubated with buffer (lanes 1, 4, 7, 10, 13), purified Apaf-530 (lanes 2, 5, 8, 11, 14) or mock purified material (lanes, 3, 6, 9, 12, 15) and then analyzed by SDS-PAGE and autoradiography.

procaspase-9 [4] = experiment: Cytochrome c/dATP-dependent processing of procaspase-9 in 293 cellular S100 extract; type: biochemical; details: 293 S100 extract, increasing amounts of purified protein, 1 hour at 30° C., dose-dependent, FIG. 18
Method: To study processing of procaspase-9 in the cytochrome c/Apaf-1-dependent pathway, WT and the Asp to Ala mutants of procaspase-9 were incubated with a cellular S100 extract in the presence or absence of cytochrome c and dATP. […] Samples were then analyzed by SDS-PAGE and autoradiography.
(§3) To confirm this, a time course analysis of procaspase-9 and procaspase-3 processing was performed in cellular S100 extracts from 293 and MCF-7 cells. […] At the indicated times the reactions were stopped and then analyzed by SDS-PAGE and autoradiography (procaspase-9 panels) or Western blot analysis using anti-caspase-3 p20 polyclonal antibody (procaspase-3 panels). Small arrows indicate a non-specific band detected by the anti-caspase-3 antibody.
(§4) In FIG. 18, 293 cellular S100 extracts supplemented with ^35S-labeled procaspase-9 (upper panel) or procaspase-3 (lower panel) were incubated with (lanes 3-7) or without (lane 2) cytochrome c plus dATP in the presence of increasing amounts of purified recombinant procaspase-9-C287A mutant for 1 hour at 30° C. and then analyzed by SDS-PAGE and autoradiography. […] Consequently, the Apaf-1/caspase-9 pathway appears to be a central apoptotic pathway, on which most apoptotic signals converge.

procaspase-3 = experiment: Cytochrome c/dATP-dependent processing of procaspase-3 in 293 cellular S100 extract; type: biochemical; details: 293 S100 extract, increasing amounts of purified protein, 1 hour at 30° C., dose-dependent, FIG. 18
Method: as §3
In FIG. 8, ^35S-labeled procaspase-3, -6 or -7 were incubated with S100 extracts from 293 cells in the presence or absence of cytochrome c/dATP or DEVD-CHO, or both and analyzed by SDS-PAGE followed by autoradiography. However, when DEVD-CHO was included, processing of procaspase-6 (lane 6), but not procaspase-3 (lane 3) or -7 (lane 9) was inhibited. […] Also, since caspase-7 cannot process procaspase-6 (Srinivasula et al., J. Biol. Chem. 271:27099-27106, 1996), caspase-3 is the one responsible for processing of procaspase-6 in the cytochrome c plus dATP-dependent pathway.
as §4

MCF-7 cells [5] = experiment: Inhibition of apoptosis in transfected MCF-7 cells; type: cell-based; details: apoptosis induced by UV, Fas agonist antibody
Description: as §2

[6] = test system: apoptosis induced by the proapoptotic members of the Bcl-2 family; details: Hegde et al. 1998; Li et al. 1997; cited from earlier work

- self-processing to large subunit (p35) and small subunit (procaspase-9 [1]): incapable of processing
B1: WT procaspase-9: non-fusion wild type procaspase-9 (protein)
chain: T1 sequence (P55211 1-416)
- induction of apoptosis (MCF-7 cells [2]): induced little apoptosis

- attenuation of Apaf-530-induced activation of procaspase-9 (procaspase-9 [3]): A similar result
- attenuation of cytochrome c/dATP-induced activation of procaspase-9 (procaspase-9 [4]): able to attenuate
- attenuation of cytochrome c/dATP-induced activation of procaspase-3 (procaspase-3): able to attenuate
B2: Caspase-9-DN: dominant negative procaspase-9-C287A mutant (protein)
chain: T1 sequence (P55211 1-416) with C287A
- inhibition of apoptosis (MCF-7 cells [5]; TRAIL, or overexpression of DR4 and DR5, FIG. 17): can also inhibit apoptosis
- inhibition of apoptosis (MCF-7 cells [5]; TRAIL, or overexpression of DR4 and DR5, FIG. 17, listed as dominant negative caspase-9 mutant): as efficient as that observed with Bcl-xL or X-IAP
- inhibition of apoptosis induced by the proapoptotic members of the Bcl-2 family [6]: can inhibit apoptosis
